In patent publication US20240100180A1:

Target: CLDN18.2 on lipoparticles
Assay: ELISA on CLDN18.2-lipoparticles

EC50: 0.0515 mg/L
Substance: IMAB362 (antibody)
